Assay results taken from the supplement of paper PMC6757056.
± gives the standard deviation of the averaged measurements.

B1: library; a variant is named by its letters at N, in order (parent)
chain: GCUGUCACCGGUGUAUUACCCUAGUGGUCGACCGGUCUGAUGAGUCUNNNNNNAGACGAAACAGC

Columns and labels:
hypoxanthine [1] = variants of: B1; experiment: FACS-Seq fitted mean relative fluorescence mCherry/BFP without ligand (log10 relative fluorescence); ligand: hypoxanthine (xanthine aptamer); higher = higher reporter protein expression; settings: HEK293T, ligand present: no
Outline: (§1)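 With or without ligand for 48 h, enriched HEK293T libraries carrying a lentiviral ribozyme-switch mCherry reporter and EF1α-BFP were sorted into 6 mCherry/BFP bins. Bin genomic DNA was amplified by PCR, barcoded and sequenced on MiSeq. Fluorescence was taken from normal fits to the resulting bin counts. Each fitted mean of log10(mCherry/BFP) was scaled to five spiked-in control ribozymes.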

hypoxanthine [2] = variants of: B1; experiment: normalized RNA/DNA level with ligand (relative to sTRSVctl = 100) (log10 (% of sTRSVctl)); ligand: hypoxanthine (xanthine aptamer); higher = less ribozyme self-cleavage, higher mRNA level; settings: ligand concentration (+) RNA-Seq: 5 mM, HEK293T, reporter: mCherry (pCS4076), ligand present: yes
Description: (§2)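 Hammerhead (sTRSV) ribozyme switch libraries with a ligand aptamer grafted on stem I and a randomized N4-6 loop II, cloned into the 3' UTR of mCherry and transiently transfected into HEK293T cells; RNA-Seq 72 h post transfection with ligand added 1 h before transfection; RNA read count / plasmid DNA read count normalized to the non-cleaving sTRSVctl (x100), log10; sequences with >100 DNA reads. FACS-Seq: lentiviral library sorted into 6 bins after 48 h ligand, log-normal fit mean of mCherry/BFP scaled to controls. Printed sequences are partial switch sequences.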

hypoxanthine [3] = variants of: B1; experiment: normalized RNA/DNA level without ligand (relative to sTRSVctl = 100) (log10 (% of sTRSVctl)); ligand: hypoxanthine (xanthine aptamer); higher = less ribozyme self-cleavage, higher mRNA level; settings: HEK293T, reporter: mCherry (pCS4076), ligand present: no
Description: as §2

hypoxanthine [4] = variants of: B1; experiment: FACS-Seq fitted mean relative fluorescence mCherry/BFP with ligand (log10 relative fluorescence); ligand: hypoxanthine (xanthine aptamer); ligand concentration (+) FACS-Seq: 5 mM; higher = higher reporter protein expression; settings: HEK293T, ligand present: yes
Outline: as §1

Variant	FACS-Seq fitted mean (log10) (hypoxanthine [1])	normalized RNA/DNA level with ligand (log10) (hypoxanthine [2])	normalized RNA/DNA level without ligand (log10) (hypoxanthine [3])	FACS-Seq fitted mean (log10) (hypoxanthine [4])
GAGUUG	0.0221 ± 0.018	1.62 ± 0.1	1.14 ± 0.038	0.503 ± 0.022
GAGAAA	0.546 ± 0.035	1.88 ± 0.021	1.597 ± 0.015	0.651 ± 0.048
GAGAAU	0.4579 ± 0.0037	1.91 ± 0.021	1.67 ± 0.023	0.611 ± 0.05
GAGAAC	0.417 ± 0.072	1.912 ± 0.0063	1.63 ± 0.038	0.735 ± 0.033
GAGAAG	-0.406 ± 0.0075	1.55 ± 0.017	1.05 ± 0.024	0.342 ± 0.037
CAGUGU	0.44 ± 0.086	1.924 ± 0.002	1.87 ± 0.016	0.795 ± 0.017
CAGUGA	0.406 ± 0.012	1.89 ± 0.076	1.71 ± 0.057	0.487 ± 0.032
CAGUGG	0.315 ± 0.042	1.9 ± 0.024	1.32 ± 0.043	0.629 ± 0.11
CAGCGG	0.2617 ± 0.00076	1.9 ± 0.031	1.48 ± 0.029	0.612 ± 0.059
CAGCGU	-0.166 ± 0.056	1.967 ± 0.017	1.89 ± 0.046	-0.185 ± 0.11
GAGAUA	0.345 ± 0.013	1.869 ± 0.015	1.65 ± 0.0036	0.362 ± 0.087
GAGAUG	0.1129 ± 0.00042	1.65 ± 0.064	1.14 ± 0.05	0.707 ± 0.033
GAGAUC	0.247 ± 0.015	1.94 ± 0.021	1.83 ± 0.053	0.211 ± 0.004
UAGCGG	0.335 ± 0.051	1.875 ± 0.017	1.542 ± 0.011	0.534 ± 0.035
UAGCGA	0.324 ± 0.049	1.89 ± 0.041	1.65 ± 0.025	0.447 ± 0.054
CAGGAA	0.2364 ± 0.0018	1.958 ± 0.014	1.58 ± 0.074	0.529 ± 0.019
CAGGAU	0.34323 ± 0.00015	1.947 ± 0.013	1.682 ± 0.015	0.512 ± 0.028
AAGACG	-0.0743 ± 0.0055	1.67 ± 0.077	1.17 ± 0.027	0.587 ± 0.028
AAGACA	0.332 ± 0.067	1.93 ± 0.067	1.675 ± 0.012	0.559 ± 0.0087
AAGACC	0.483 ± 0.015	1.94 ± 0.029	1.9 ± 0.027	0.305 ± 0.21
GAGCAA	0.362 ± 0.027	1.892 ± 0.013	1.581 ± 0.0039	0.596 ± 0.09
GAGCAC	0.773 ± 0.029	1.89 ± 0.037	1.71 ± 0.05	0.682 ± 0.074
GAGCAG	-0.00628 ± 0.045	1.67 ± 0.027	1.19 ± 0.024	0.5054 ± 0.0013
UAGGUG	0.399 ± 0.065	1.89 ± 0.079	1.61 ± 0.035	0.591 ± 0.012

Variant	FACS-Seq fitted mean (log10) (hypoxanthine [1])	normalized RNA/DNA level with ligand (log10) (hypoxanthine [2])	normalized RNA/DNA level without ligand (log10) (hypoxanthine [3])	FACS-Seq fitted mean (log10) (hypoxanthine [4])
UAGGUC	0.588 ± 0.034	1.978 ± 0.0051	1.95 ± 0.054	0.577 ± 0.036
AAGAUG	0.0294 ± 0.013	1.64 ± 0.087	1.09 ± 0.045	0.578 ± 0.025
AAGAUC	0.614 ± 0.031	1.973 ± 0.0076	1.92 ± 0.043	0.556 ± 0.033
AAGAUU	-0.294 ± 0.047	1.9382 ± 0.00039	1.805 ± 0.016	0.11 ± 0.042
AAGAUA	0.32 ± 0.064	1.89 ± 0.031	1.63 ± 0.022	0.339 ± 0.1
AAGCCG	0.00433 ± 0.082	1.728 ± 0.013	1.26 ± 0.04	0.4844 ± 0.0029
AAGCCA	-0.28 ± 0.034	1.94 ± 0.039	1.76 ± 0.021	0.134 ± 0.017
AAGCAG	-0.122 ± 0.013	1.64 ± 0.044	1.19 ± 0.02	0.501 ± 0.039
AAGCAA	0.4932 ± 0.00094	1.899 ± 0.0026	1.61 ± 0.053	0.591 ± 0.03
UAGUCC	0.327 ± 0.0056	1.97 ± 0.067	1.92 ± 0.023	0.646 ± 0.091
UAGUCA	0.551 ± 0.061	1.944 ± 0.0025	1.853 ± 0.006	0.647 ± 0.03
CAGACA	0.574 ± 0.043	1.96 ± 0.032	1.75 ± 0.045	0.74 ± 0.064
UAGAGA	-0.0593 ± 0.041	1.9 ± 0.051	1.39 ± 0.036	0.431 ± 0.029
UAGAGU	0.11 ± 0.061	1.74 ± 0.09	1.21 ± 0.04	0.536 ± 0.099
UAGAGG	0.0918 ± 0.042	1.75 ± 0.038	1.21 ± 0.03	0.552 ± 0.011
AACUGA	-0.0809 ± 0.032	1.94 ± 0.035	1.716 ± 0.012	-0.204 ± 0.016
AACUGU	0.343 ± 0.028	1.89 ± 0.027	1.72 ± 0.014	0.538 ± 0.014
AACUGC	0.74 ± 0.033	1.91 ± 0.053	1.87 ± 0.025	0.697 ± 0.048
AACUGG	0.285 ± 0.031	1.7871 ± 0.0011	1.42 ± 0.039	0.67312 ± 0.00058
GACUGG	0.157 ± 0.015	1.758 ± 0.0058	1.42 ± 0.045	0.6446 ± 0.0029
GACUGA	0.742 ± 0.053	1.94 ± 0.072	1.763 ± 0.011	0.639 ± 0.17
UAGCAG	0.215 ± 0.033	1.87 ± 0.02	1.61 ± 0.038	0.507 ± 0.05
UAGCAA	0.0307 ± 0.043	1.9 ± 0.026	1.739 ± 0.0055	0.155 ± 0.024
UAGAAU	0.3304 ± 0.003	1.9 ± 0.023	1.72 ± 0.03	0.6203 ± 0.0037

Variant	FACS-Seq fitted mean (log10) (hypoxanthine [1])	normalized RNA/DNA level with ligand (log10) (hypoxanthine [2])	normalized RNA/DNA level without ligand (log10) (hypoxanthine [3])	FACS-Seq fitted mean (log10) (hypoxanthine [4])
UAGAAG	0.421 ± 0.0051	1.858 ± 0.0066	1.47 ± 0.022	0.577 ± 0.057
UAGAAA	0.355 ± 0.024	1.88 ± 0.052	1.702 ± 0.013	0.469 ± 0.053
UAGAAC	0.437 ± 0.028	1.93 ± 0.031	1.809 ± 0.014	0.578 ± 0.076
GAGCUA	0.221 ± 0.077	1.925 ± 0.018	1.722 ± 0.004	0.293 ± 0.039
GAGCUG	0.345 ± 0.0035	1.86 ± 0.03	1.31 ± 0.028	0.75 ± 0.083
GACUUG	0.475 ± 0.072	1.84 ± 0.054	1.5 ± 0.034	0.228 ± 0.36
GAGGCG	0.189 ± 0.012	1.95 ± 0.012	1.68 ± 0.088	0.597 ± 0.047
GAGGCU	0.751 ± 0.037	2 ± 0.021	1.98 ± 0.036	0.721 ± 0.025
GAGGCA	0.306 ± 0.0093	1.937 ± 0.018	1.9192 ± 0.0019	0.427 ± 0.021
GACUCG	0.331 ± 0.066	1.86 ± 0.051	1.63 ± 0.083	0.567 ± 0.081
GAGGUG	0.14 ± 0.057	1.78 ± 0.031	1.33 ± 0.025	0.551 ± 0.026
AAGUCU	-0.27 ± 0.07	1.91 ± 0.046	1.84 ± 0.053	-0.266 ± 0.014
AAGUCA	0.838 ± 0.069	1.9 ± 0.062	1.63 ± 0.062	0.608 ± 0.1
AAGUCG	-0.00018 ± 0.0075	1.79 ± 0.11	1.187 ± 0.0065	0.661 ± 0.016
UAGGGG	0.118 ± 0.086	1.87 ± 0.037	1.5 ± 0.022	0.393 ± 0.018
UAGGGU	0.526 ± 0.034	1.84 ± 0.067	1.5 ± 0.027	0.632 ± 0.075
GAGGGC	-0.0173 ± 0.076	1.87 ± 0.056	1.5 ± 0.021	0.367 ± 0.041
AAGGAG	0.245 ± 0.003	1.62 ± 0.068	1.12 ± 0.047	0.589 ± 0.11
AAGGAA	0.159 ± 0.16	1.869 ± 0.015	1.53 ± 0.0077	0.411 ± 0.07
AAGGAU	0.678 ± 0.038	1.91 ± 0.037	1.653 ± 0.013	0.732 ± 0.042
AAGGGC	0.365 ± 0.031	1.9146 ± 0.00071	1.75 ± 0.023	0.576 ± 0.022
AAGGGA	0.273 ± 0.057	1.83 ± 0.035	1.44 ± 0.017	0.545 ± 0.02
AAGGGU	0.236 ± 0.0092	1.835 ± 0.0086	1.54 ± 0.072	0.4 ± 0.093
